Laboratory results reported in the supplement of paper PMC5998384.

Experiments:
HeLa Kyoto [1] = assay: solubility change mitosis vs G1/S (difference of NP-40 vs SDS log2 ratios) (log2 ratio difference); higher = more soluble in mitosis
HeLa Kyoto [2] = assay: thermal stability score vs G1/S (z-score of summed log2 fold changes over temperatures); higher = more thermally stable than in G1/S
HeLa Kyoto [3] = assay: solubility in G1/S (NP-40 vs SDS abundance) (log2 ratio); higher = more soluble; conditions: cell cycle stage: G1/S
HeLa Kyoto [4] = assay: melting temperature (median over replicates), in situ; higher = more thermally stable
[5] = cell cycle stage: early G1 (4.5 h after nocodazole release)
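Wherever melting temperature (median over replicates), in situ is given: HeLa Kyoto cells synchronized by double thymidine or nocodazole block, proteins quantified by TMT10plex mass spectrometry, three independent biological replicates.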
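Wherever solubility change mitosis vs G1/S (difference of NP-40 vs SDS log2 ratios) is given: synchronized HeLa Kyoto cells (double thymidine block for G1/S, nocodazole release for mitosis), protein amounts in NP-40 versus SDS lysates quantified by mass spectrometry, three biological replicates.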
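Wherever solubility in G1/S (NP-40 vs SDS abundance) is given: HeLa Kyoto cells arrested at G1/S by double thymidine block, proteins quantified by TMT10plex mass spectrometry in mild NP-40 versus SDS extracts, three biological replicates.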
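Wherever thermal stability score vs G1/S (z-score of summed log2 fold changes over temperatures) is given: synchronized HeLa Kyoto cells, proteins quantified by TMT10plex mass spectrometry, three biological replicates, mitosis taken 0.5 h after nocodazole release, G1/S directly after double thymidine block.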

Chain of DHX9 (chain, as listed by the source): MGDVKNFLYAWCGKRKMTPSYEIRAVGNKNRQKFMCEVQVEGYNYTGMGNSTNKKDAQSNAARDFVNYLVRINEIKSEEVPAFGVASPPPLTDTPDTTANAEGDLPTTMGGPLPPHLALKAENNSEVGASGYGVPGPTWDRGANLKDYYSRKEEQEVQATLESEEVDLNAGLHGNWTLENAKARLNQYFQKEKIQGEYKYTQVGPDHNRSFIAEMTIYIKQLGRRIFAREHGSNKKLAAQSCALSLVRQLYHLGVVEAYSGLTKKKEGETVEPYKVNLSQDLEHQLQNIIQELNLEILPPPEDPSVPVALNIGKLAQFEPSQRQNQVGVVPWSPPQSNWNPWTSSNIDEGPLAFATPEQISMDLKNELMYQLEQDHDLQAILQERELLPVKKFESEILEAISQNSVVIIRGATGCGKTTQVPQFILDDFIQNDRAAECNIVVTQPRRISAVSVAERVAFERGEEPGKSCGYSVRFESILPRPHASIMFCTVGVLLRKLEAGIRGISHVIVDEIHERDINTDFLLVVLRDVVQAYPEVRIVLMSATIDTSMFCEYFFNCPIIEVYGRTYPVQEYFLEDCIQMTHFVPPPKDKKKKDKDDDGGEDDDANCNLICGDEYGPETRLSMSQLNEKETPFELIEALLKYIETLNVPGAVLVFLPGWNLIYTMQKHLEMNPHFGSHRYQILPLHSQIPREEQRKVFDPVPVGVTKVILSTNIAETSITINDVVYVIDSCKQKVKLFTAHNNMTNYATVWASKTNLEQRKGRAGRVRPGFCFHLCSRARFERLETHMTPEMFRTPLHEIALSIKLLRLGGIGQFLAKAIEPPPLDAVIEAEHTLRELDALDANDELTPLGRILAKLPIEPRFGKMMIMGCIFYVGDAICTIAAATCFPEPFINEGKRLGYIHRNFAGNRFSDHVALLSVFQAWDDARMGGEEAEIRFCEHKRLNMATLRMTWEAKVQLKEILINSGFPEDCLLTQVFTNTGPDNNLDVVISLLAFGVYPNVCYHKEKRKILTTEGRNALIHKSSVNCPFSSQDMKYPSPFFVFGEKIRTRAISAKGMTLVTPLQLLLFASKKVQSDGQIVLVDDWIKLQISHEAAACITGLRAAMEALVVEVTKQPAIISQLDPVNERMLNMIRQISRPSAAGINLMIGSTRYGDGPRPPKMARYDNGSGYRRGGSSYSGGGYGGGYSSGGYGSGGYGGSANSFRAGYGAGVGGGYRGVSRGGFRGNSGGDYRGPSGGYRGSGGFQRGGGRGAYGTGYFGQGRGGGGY

Substance	solubility change mitosis (log2) (HeLa Kyoto [1])	thermal stability score (HeLa Kyoto [2]; [5])	thermal stability score (HeLa Kyoto [2]; cell cycle stage: mitosis)	solubility in G1/S (log2) (HeLa Kyoto [3])	melting temperature (HeLa Kyoto [4]; cell cycle stage: G1/S)	melting temperature (HeLa Kyoto [4]; cell cycle stage: mitosis)
MAEAPPVSGTFKFNTDAAEFIPQEKKNSGLNCGTQRRLDSNRIGRRNYSSPPPCHLSRQVPYDEISAVHQHSYHPSGSKPKSQQTSFQSSPCNKSPKSHGLQNQPWQKLRNEKHHIRVKKAQSLAEQTSDTAGLESSTRSESGTDLREHSPSESEKEVVGADPRGAKPKKATQFVYSYGRGPKVKGKLKCEWSNRTTPKPEDAGPESTKPVGVFHPDSSEASSRKGVLDGYGARRNEQRRYPQKRPPWEVEGARPRPGRNPPKQEGHRHTNAGHRNNMGPIPKDDLNERPAKSTCDSENLAVINKSSRRVDQEKCTVRRQDPQVVSPFSRGKQNHVLKNVETHTGSLIEQLTTEKYECMVCCELVRVTAPVWSCQSCYHVFHLNCIKKWARSPASQADGQSGWRCPACQNVSAHVPNTYTCFCGKVKNPEWSRNEIPHSCGEVCRKKQPGQDCPHSCNLLCHPGPCPPCPAFMTKTCECGRTRHTVRCGQAVSVHCSNPCENILNCGQHQCAELCHGGQCQPCQIILNQVCYCGSTSRDVLCGTDVGKSDGFGDFSCLKICGKDLKCGNHTCSQVCHPQPCQQCPRLPQLVRCCPCGQTPLSQLLELGSSSRKTCMDPVPSCGKVCGKPLPCGSLDFIHTCEKLCHEGDCGPCSRTSVISCRCSFRTKELPCTSLKSEDATFMCDKRCNKKRLCGRHKCNEICCVDKEHKCPLICGRKLRCGLHRCEEPCHRGNCQTCWQASFDELTCHCGASVIYPPVPCGTRPPECTQTCARVHECDHPVYHSCHSEEKCPPCTFLTQKWCMGKHEFRSNIPCHLVDISCGLPCSATLPCGMHKCQRLCHKGECLVDEPCKQPCTTPRADCGHPCMAPCHTSSPCPVTACKAKVELQCECGRRKEMVICSEASSTYQRIAAISMASKITDMQLGGSVEISKLITKKEVHQARLECDEECSALERKKRLAEAFHISEDSDPFNIRSSGSKFSDSLKEDARKDLKFVSDVEKEMETLVEAVNKGKNSKKSHSFPPMNRDHRRIIHDLAQVYGLESVSYDSEPKRNVVVTAIRGKSVCPPTTLTGVLEREMQARPPPPIPHHRHQSDKNPGSSNLQKITKEPIIDYFDVQD [NFX1]	0.35	1.02	0.0215	-0.786	50.5 °C	50.3 °C
DHX9	0.211	1.02	2.63	-0.671	50.5 °C	50.5 °C
MFLPHMNHLTLEQTFFSQVLPKTVKLFDDMMYELTSQARGLSSQNLEIQTTLRNILQTMVQLLGALTGCVQHICATQESIILENIQSLPSSVLHIIKSTFVHCKNSESVYSGCLHLVSDLLQALFKEAYSLQKQLMELLDMVCMDPLVDDNDDILNMVIVIHSLLDICSVISSMDHAFHANTWKFIIKQSLKHQSIIKSQLKHKDIITSLCEDILFSFHSCLQLAEQMTQSDAQDNADYRLFQKTLKLCRFFANSLLHYAKEFLPFLSDSCCTLHQLYLQIHSKFPPSLYATRISKAHQEEIAGAFLVTLDPLISQLLTFQPFMQVVLDSKLDLPCELQFPQCLLLVVVMDKLPSQPKEVQTLWCTDSQVSETTTRISLLKAVFYSFEQCSGELSLPVHLQGLKSKGKAEVAVTLYQHVCVHLCTFITSFHPSLFAELDAALLNAVLSANMITSLLAMDAWCFLARYGTAELCAHHVTIVAHLIKSCPGECYQLINLSILLKRLFFFMAPPHQLEFIQKFSPKEAENLPLWQHISFQALPPELREQTVHEVTTVGTAECRKWLSRSRTLGELESLNTVLSALLAVCNSAGEALDTGKQTAIIEVVSQLWAFLNIKQVADQPYVQQTFSLLLPLLGFFIQTLDPKLILQAVTLQTSLLKLELPDYVRLAMLDFVSSLGKLFIPEAIQDRILPNLSCMFALLLADRSWLLEQHTLEAFTQFAEGTNHEEIVPQCLSSEETKNKVVSFLEKTGFVDETEAAKVERVKQEKGIFWEPFANVTVEEAKRSSLQPYAKRARQEFPWEEEYRSALHTIAGALEATESLLQKGPAPAWLSMEMEALQERMDKLKRYIHTLG [C1ORF112]	-0.0761	0.547	1.23	-0.208	47.9 °C	48.9 °C
MFGAAGRQPIGAPAAGNSWHFSRTMEELVHDLVSALEESSEQARGGFAETGDHSRSISCPLKRQARKRRGRKRRSYNVHHPWETGHCLSEGSDSSLEEPSKDYRENHNNNKKDHSDSDDQMLVAKRRPSSNLNNNVRGKRPLWHESDFAVDNVGNRTLRRRRKVKRMAVDLPQDISNKRTMTQPPEGCRDQDMDSDRAYQYQEFTKNKVKKRKLKIIRQGPKIQDEGVVLESEETNQTNKDKMECEEQKVSDELMSESDSSSLSSTDAGLFTNDEGRQGDDEQSDWFYEKESGGACGITGVVPWWEKEDPTELDKNVPDPVFESILTGSFPLMSHPSRRGFQARLSRLHGMSSKNIKKSGGTPTSMVPIPGPVGNKRMVHFSPDSHHHDHWFSPGARTEHDQHQLLRDNRAERGHKKNCSVRTASRQTSMHLGSLCTGDIKRRRKAAPLPGPTTAGFVGENAQPILENNIGNRMLQNMGWTPGSGLGRDGKGISEPIQAMQRPKGLGLGFPLPKSTSATTTPNAGKSA [GPATCH2]	-0.0138	-0.791	-1.01	0.0278	51.7 °C	53 °C
